Consider twelve molecules from patent US20200317768A1 (published 2020).

B1: MS_M103205H795-SG1/M103202L889-SK1 (antibody, human IgG1, kappa)
heavy: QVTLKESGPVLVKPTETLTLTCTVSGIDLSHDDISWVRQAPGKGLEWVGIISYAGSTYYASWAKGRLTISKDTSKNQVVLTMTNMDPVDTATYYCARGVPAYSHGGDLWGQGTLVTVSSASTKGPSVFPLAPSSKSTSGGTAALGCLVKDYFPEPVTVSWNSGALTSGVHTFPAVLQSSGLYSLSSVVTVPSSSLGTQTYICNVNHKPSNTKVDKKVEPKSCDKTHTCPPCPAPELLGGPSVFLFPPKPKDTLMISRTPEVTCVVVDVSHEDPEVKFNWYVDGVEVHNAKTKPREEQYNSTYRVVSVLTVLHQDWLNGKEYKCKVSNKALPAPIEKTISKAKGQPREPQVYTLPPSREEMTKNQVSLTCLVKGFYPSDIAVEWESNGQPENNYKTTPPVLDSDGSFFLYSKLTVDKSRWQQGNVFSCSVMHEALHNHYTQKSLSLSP
light: DIVMTQSPATLSLSPGERATLSCTSSQSVYHANWLSWFQQKPGQPPKLLIYWASTLAYGVPSRFSGSGSGTDFTLTISSLQPEDAATYYCAGGYGGGRYAFGQGTKVEIKRTVAAPSVFIFPPSDEQLKSGTASVVCLLNNFYPREAKVQWKVDNALQSGNSQESVTEQDSKDSTYSLSSTLTLSKADYEKHKVYACEVTHQGLSSPVTKSFNRGEC
notes: Parent of the Fc variants; also called MS1032LO06-SG1
B2: M103205H795-MY001/M103202L889-SK1 (antibody, human IgG1, kappa)
heavy: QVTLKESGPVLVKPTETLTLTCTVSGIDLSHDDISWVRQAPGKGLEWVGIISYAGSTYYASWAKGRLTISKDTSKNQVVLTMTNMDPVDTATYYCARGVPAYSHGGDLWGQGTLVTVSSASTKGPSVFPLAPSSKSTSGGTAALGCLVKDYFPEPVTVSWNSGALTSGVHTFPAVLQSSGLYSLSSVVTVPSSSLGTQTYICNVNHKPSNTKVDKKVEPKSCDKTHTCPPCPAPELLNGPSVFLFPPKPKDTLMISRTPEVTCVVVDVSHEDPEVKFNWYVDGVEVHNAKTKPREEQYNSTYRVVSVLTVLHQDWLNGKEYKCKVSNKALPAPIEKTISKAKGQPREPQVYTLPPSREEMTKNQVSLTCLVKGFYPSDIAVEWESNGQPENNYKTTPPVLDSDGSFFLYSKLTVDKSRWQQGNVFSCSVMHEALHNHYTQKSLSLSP
light: DIVMTQSPATLSLSPGERATLSCTSSQSVYHANWLSWFQQKPGQPPKLLIYWASTLAYGVPSRFSGSGSGTDFTLTISSLQPEDAATYYCAGGYGGGRYAFGQGTKVEIKRTVAAPSVFIFPPSDEQLKSGTASVVCLLNNFYPREAKVQWKVDNALQSGNSQESVTEQDSKDSTYSLSSTLTLSKADYEKHKVYACEVTHQGLSSPVTKSFNRGEC
notes: Substitutions introduced into M103205H795-SG1; expressed with M103202L889-SK1 as light chain
B3: M103205H795-MY117/M103202L889-SK1 (antibody, human IgG1, kappa)
heavy: QVTLKESGPVLVKPTETLTLTCTVSGIDLSHDDISWVRQAPGKGLEWVGIISYAGSTYYASWAKGRLTISKDTSKNQVVLTMTNMDPVDTATYYCARGVPAYSHGGDLWGQGTLVTVSSASTKGPSVFPLAPSSKSTSGGTAALGCLVKDYFPEPVTVSWNSGALTSGVHTFPAVLQSSGLYSLSSVVTVPSSSLGTQTYICNVNHKPSNTKVDKKVEPKSCDKTHTCPPCPAPEWLNGPSVFLFPPKPKDTLMISRTPEVTCVVVDVAEEDPEVKFNWYVDGVEVHNAKTKPREEQYNSTYRVVSVLTVLHQDWLNGKEYKCKVSNKALPAPIEKTISKAKGQPREPQVYTLPPSREEMTKNQVSLTCLVKGFYPSDIAVEWESNGQPENNYKTTPMVLDSDGSFFLYSKLTVDKSRWQQGNVFSCSVMHEALHNHYTQKSLSLSP
light: DIVMTQSPATLSLSPGERATLSCTSSQSVYHANWLSWFQQKPGQPPKLLIYWASTLAYGVPSRFSGSGSGTDFTLTISSLQPEDAATYYCAGGYGGGRYAFGQGTKVEIKRTVAAPSVFIFPPSDEQLKSGTASVVCLLNNFYPREAKVQWKVDNALQSGNSQESVTEQDSKDSTYSLSSTLTLSKADYEKHKVYACEVTHQGLSSPVTKSFNRGEC
notes: as for B2
B4: M103205H795-MY051/M103202L889-SK1 (antibody, human IgG1, kappa)
heavy: QVTLKESGPVLVKPTETLTLTCTVSGIDLSHDDISWVRQAPGKGLEWVGIISYAGSTYYASWAKGRLTISKDTSKNQVVLTMTNMDPVDTATYYCARGVPAYSHGGDLWGQGTLVTVSSASTKGPSVFPLAPSSKSTSGGTAALGCLVKDYFPEPVTVSWNSGALTSGVHTFPAVLQSSGLYSLSSVVTVPSSSLGTQTYICNVNHKPSNTKVDKKVEPKSCDKTHTCPPCPAPELLNGPSVFLFPPKPKDTLMISRTPEVTCVVVDVSEEDGEVKFNWYVDGVEVHNAKTKPREEQYNSTYRVVSVLTVLHQDWLNGKEYKCKVSNKALPAPIEKTISKAKGQPREPQVYTLPPSREEMTKNQVSLTCLVKGFYPSDIAVEWESNGQPENNYKTTPPVLDSDGSFFLYSKLTVDKSRWQQGNVFSCSVMHEALHNHYTQKSLSLSP
light: DIVMTQSPATLSLSPGERATLSCTSSQSVYHANWLSWFQQKPGQPPKLLIYWASTLAYGVPSRFSGSGSGTDFTLTISSLQPEDAATYYCAGGYGGGRYAFGQGTKVEIKRTVAAPSVFIFPPSDEQLKSGTASVVCLLNNFYPREAKVQWKVDNALQSGNSQESVTEQDSKDSTYSLSSTLTLSKADYEKHKVYACEVTHQGLSSPVTKSFNRGEC
notes: as for B2
B5: M103205H795-MY101/M103202L889-SK1 (antibody, human IgG1, kappa)
heavy: QVTLKESGPVLVKPTETLTLTCTVSGIDLSHDDISWVRQAPGKGLEWVGIISYAGSTYYASWAKGRLTISKDTSKNQVVLTMTNMDPVDTATYYCARGVPAYSHGGDLWGQGTLVTVSSASTKGPSVFPLAPSSKSTSGGTAALGCLVKDYFPEPVTVSWNSGALTSGVHTFPAVLQSSGLYSLSSVVTVPSSSLGTQTYICNVNHKPSNTKVDKKVEPKSCDKTHTCPPCPAPELLNGPSVFLFPPKPKDTLMISRTPEVTCVVVDVSEEDPEVKFNWYVDGVEVHNAKTKPREEQYNSTYRVVSVLTVLHQDWLNGKEYKCKVSNKALPKPIEKTISKAKGQPREPQVYTLPPSREEMTKNQVSLTCLVKGFYPSDIAVEWESNGQPENNYKTTPMVLDSDGSFFLYSKLTVDKSRWQQGNVFSCSVMHEALHNHYTQKSLSLSP
light: DIVMTQSPATLSLSPGERATLSCTSSQSVYHANWLSWFQQKPGQPPKLLIYWASTLAYGVPSRFSGSGSGTDFTLTISSLQPEDAATYYCAGGYGGGRYAFGQGTKVEIKRTVAAPSVFIFPPSDEQLKSGTASVVCLLNNFYPREAKVQWKVDNALQSGNSQESVTEQDSKDSTYSLSSTLTLSKADYEKHKVYACEVTHQGLSSPVTKSFNRGEC
notes: also called MS1032LO06-MY101
B6: M103205H795-MY105/M103202L889-SK1 (antibody, human IgG1, kappa)
heavy: QVTLKESGPVLVKPTETLTLTCTVSGIDLSHDDISWVRQAPGKGLEWVGIISYAGSTYYASWAKGRLTISKDTSKNQVVLTMTNMDPVDTATYYCARGVPAYSHGGDLWGQGTLVTVSSASTKGPSVFPLAPSSKSTSGGTAALGCLVKDYFPEPVTVSWNSGALTSGVHTFPAVLQSSGLYSLSSVVTVPSSSLGTQTYICNVNHKPSNTKVDKKVEPKSCDKTHTCPPCPAPELLNGPVVFLFPPKPKDTLMISRTPEVTCVVVDVSEEDPEVKFNWYVDGVEVHNAKTKPREEQYNSTYRVVSVLTVLHQDWLNGKEYKCKVSNKALPAPIEKTISKAKGQPREPQVYTLPPSREEMTKNQVSLTCLVKGFYPSDIAVEWESNGQPENNYKTTPMVLDSDGSFFLYSKLTVDKSRWQQGNVFSCSVMHEALHNHYTQKSLSLSP
light: DIVMTQSPATLSLSPGERATLSCTSSQSVYHANWLSWFQQKPGQPPKLLIYWASTLAYGVPSRFSGSGSGTDFTLTISSLQPEDAATYYCAGGYGGGRYAFGQGTKVEIKRTVAAPSVFIFPPSDEQLKSGTASVVCLLNNFYPREAKVQWKVDNALQSGNSQESVTEQDSKDSTYSLSSTLTLSKADYEKHKVYACEVTHQGLSSPVTKSFNRGEC
notes: as for B2
B7: M103205H795-MY050/M103202L889-SK1 (antibody, human IgG1, kappa)
heavy: QVTLKESGPVLVKPTETLTLTCTVSGIDLSHDDISWVRQAPGKGLEWVGIISYAGSTYYASWAKGRLTISKDTSKNQVVLTMTNMDPVDTATYYCARGVPAYSHGGDLWGQGTLVTVSSASTKGPSVFPLAPSSKSTSGGTAALGCLVKDYFPEPVTVSWNSGALTSGVHTFPAVLQSSGLYSLSSVVTVPSSSLGTQTYICNVNHKPSNTKVDKKVEPKSCDKTHTCPPCPAPELLNGPSVFLFPPKPKDTLMISRTPEVTCVVVDVAEEDPEVKFNWYVDGVEVHNAKTKPREEQYNSTYRVVSVLTVLHQDWLNGKEYKCKVSNKALPAPIEKTISKAKGQPREPQVYTLPPSREEMTKNQVSLTCLVKGFYPSDIAVEWESNGQPENNYKTTPPVLDSDGSFFLYSKLTVDKSRWQQGNVFSCSVMHEALHNHYTQKSLSLSP
light: DIVMTQSPATLSLSPGERATLSCTSSQSVYHANWLSWFQQKPGQPPKLLIYWASTLAYGVPSRFSGSGSGTDFTLTISSLQPEDAATYYCAGGYGGGRYAFGQGTKVEIKRTVAAPSVFIFPPSDEQLKSGTASVVCLLNNFYPREAKVQWKVDNALQSGNSQESVTEQDSKDSTYSLSSTLTLSKADYEKHKVYACEVTHQGLSSPVTKSFNRGEC
notes: as for B2
B8: M103205H795-MY049/M103202L889-SK1 (antibody, human IgG1, kappa)
heavy: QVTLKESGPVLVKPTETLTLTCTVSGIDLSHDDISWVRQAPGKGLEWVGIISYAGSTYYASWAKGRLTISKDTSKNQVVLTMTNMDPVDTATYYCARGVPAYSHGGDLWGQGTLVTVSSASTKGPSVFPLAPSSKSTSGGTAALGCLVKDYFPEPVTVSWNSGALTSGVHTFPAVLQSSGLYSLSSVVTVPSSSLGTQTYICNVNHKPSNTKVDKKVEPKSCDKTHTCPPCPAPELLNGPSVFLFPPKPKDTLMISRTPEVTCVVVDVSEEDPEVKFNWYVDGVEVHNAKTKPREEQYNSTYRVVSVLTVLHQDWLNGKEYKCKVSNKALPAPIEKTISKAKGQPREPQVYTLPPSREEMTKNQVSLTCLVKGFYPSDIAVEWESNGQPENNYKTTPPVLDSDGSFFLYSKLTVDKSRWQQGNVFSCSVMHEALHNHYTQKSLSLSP
light: DIVMTQSPATLSLSPGERATLSCTSSQSVYHANWLSWFQQKPGQPPKLLIYWASTLAYGVPSRFSGSGSGTDFTLTISSLQPEDAATYYCAGGYGGGRYAFGQGTKVEIKRTVAAPSVFIFPPSDEQLKSGTASVVCLLNNFYPREAKVQWKVDNALQSGNSQESVTEQDSKDSTYSLSSTLTLSKADYEKHKVYACEVTHQGLSSPVTKSFNRGEC
notes: as for B2
B9: M103205H795-MY047/M103202L889-SK1 (antibody, human IgG1, kappa)
heavy: not shown
light: DIVMTQSPATLSLSPGERATLSCTSSQSVYHANWLSWFQQKPGQPPKLLIYWASTLAYGVPSRFSGSGSGTDFTLTISSLQPEDAATYYCAGGYGGGRYAFGQGTKVEIKRTVAAPSVFIFPPSDEQLKSGTASVVCLLNNFYPREAKVQWKVDNALQSGNSQESVTEQDSKDSTYSLSSTLTLSKADYEKHKVYACEVTHQGLSSPVTKSFNRGEC
notes: as for B2
B10: M103205H795-MY048/M103202L889-SK1 (antibody, human IgG1, kappa)
heavy: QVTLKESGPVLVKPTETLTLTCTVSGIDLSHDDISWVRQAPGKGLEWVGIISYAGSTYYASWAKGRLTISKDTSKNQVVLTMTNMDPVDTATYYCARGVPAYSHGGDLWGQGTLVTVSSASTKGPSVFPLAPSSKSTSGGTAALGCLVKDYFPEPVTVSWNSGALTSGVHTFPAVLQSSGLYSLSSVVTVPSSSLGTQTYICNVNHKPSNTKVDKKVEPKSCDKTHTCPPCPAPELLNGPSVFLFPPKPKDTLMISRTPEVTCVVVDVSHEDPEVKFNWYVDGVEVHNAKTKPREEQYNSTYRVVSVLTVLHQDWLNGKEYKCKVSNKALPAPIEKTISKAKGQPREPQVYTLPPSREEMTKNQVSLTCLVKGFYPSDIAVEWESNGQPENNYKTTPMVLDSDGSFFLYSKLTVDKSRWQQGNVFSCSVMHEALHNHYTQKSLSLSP
light: DIVMTQSPATLSLSPGERATLSCTSSQSVYHANWLSWFQQKPGQPPKLLIYWASTLAYGVPSRFSGSGSGTDFTLTISSLQPEDAATYYCAGGYGGGRYAFGQGTKVEIKRTVAAPSVFIFPPSDEQLKSGTASVVCLLNNFYPREAKVQWKVDNALQSGNSQESVTEQDSKDSTYSLSSTLTLSKADYEKHKVYACEVTHQGLSSPVTKSFNRGEC
notes: as for B2
B11: M103205H795-MY052/M103202L889-SK1 (antibody, human IgG1, kappa)
heavy: QVTLKESGPVLVKPTETLTLTCTVSGIDLSHDDISWVRQAPGKGLEWVGIISYAGSTYYASWAKGRLTISKDTSKNQVVLTMTNMDPVDTATYYCARGVPAYSHGGDLWGQGTLVTVSSASTKGPSVFPLAPSSKSTSGGTAALGCLVKDYFPEPVTVSWNSGALTSGVHTFPAVLQSSGLYSLSSVVTVPSSSLGTQTYICNVNHKPSNTKVDKKVEPKSCDKTHTCPPCPAPELLNGPSVFLFPPKPKDTLMISRTPEVTCVVVDVSEEDPEVKFNWYVDGVEVHNAKTKPREEQYNSTYRVVSVLTVLHQDWLNGKEYKCKVSNKALPAPIEKTISKAKGQPREPQVYTLPPSREEMTKNQVSLTCLVKGFYPSDIAVEWESNGQPENNYKTTPMVLDSDGSFFLYSKLTVDKSRWQQGNVFSCSVMHEALHNHYTQKSLSLSP
light: DIVMTQSPATLSLSPGERATLSCTSSQSVYHANWLSWFQQKPGQPPKLLIYWASTLAYGVPSRFSGSGSGTDFTLTISSLQPEDAATYYCAGGYGGGRYAFGQGTKVEIKRTVAAPSVFIFPPSDEQLKSGTASVVCLLNNFYPREAKVQWKVDNALQSGNSQESVTEQDSKDSTYSLSSTLTLSKADYEKHKVYACEVTHQGLSSPVTKSFNRGEC
notes: as for B2
B12: M103205H795-MY115/M103202L889-SK1 (antibody, human IgG1, kappa)
heavy: QVTLKESGPVLVKPTETLTLTCTVSGIDLSHDDISWVRQAPGKGLEWVGIISYAGSTYYASWAKGRLTISKDTSKNQVVLTMTNMDPVDTATYYCARGVPAYSHGGDLWGQGTLVTVSSASTKGPSVFPLAPSSKSTSGGTAALGCLVKDYFPEPVTVSWNSGALTSGVHTFPAVLQSSGLYSLSSVVTVPSSSLGTQTYICNVNHKPSNTKVDKKVEPKSCDKTHTCPPCPAPELLNGPSVFLFPPKPKDTLMISRTPEVTCVVVDVAEEDPEVKFNWYVDGVEVHNAKTKPREEQYNSTYRVVSVLTVLHQDWLNGKEYKCKVSNKALPAPIEKTISKAKGQPREPQVYTLPPSREEMTKNQVSLTCLVKGFYPSDIAVEWESNGQPENNYKTTPMVLDSDGSFFLYSKLTVDKSRWQQGNVFSCSVMHEALHNHYTQKSLSLSP
light: DIVMTQSPATLSLSPGERATLSCTSSQSVYHANWLSWFQQKPGQPPKLLIYWASTLAYGVPSRFSGSGSGTDFTLTISSLQPEDAATYYCAGGYGGGRYAFGQGTKVEIKRTVAAPSVFIFPPSDEQLKSGTASVVCLLNNFYPREAKVQWKVDNALQSGNSQESVTEQDSKDSTYSLSSTLTLSKADYEKHKVYACEVTHQGLSSPVTKSFNRGEC
notes: as for B2

In this assay the target is T1, human FcγRIIIaV extracellular domain, C-terminal His-tag (human, UniProt P08637 17-208).
T1 construct: also called human FcgRIIIaV; FcgRIIIaV
T1 sequence (P08637 17-208 F176V): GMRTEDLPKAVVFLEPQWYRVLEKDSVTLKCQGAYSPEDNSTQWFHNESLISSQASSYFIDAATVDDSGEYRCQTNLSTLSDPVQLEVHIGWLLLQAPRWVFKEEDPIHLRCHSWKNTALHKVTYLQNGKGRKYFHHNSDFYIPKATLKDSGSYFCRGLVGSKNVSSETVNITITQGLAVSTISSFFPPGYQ
Kind of assay: SPR (Biacore), antibody captured, FcgR analyte.
B1 had a Kd of 0.81 µM. In other words, the sub-micromolar range.

For the molecule B2, the affinity, expressed as Kd, was 18 µM. Compared with the last molecule, the Kd is about 22-fold higher.

In turn, B3 yielded a Kd of 7.3 µM.

Molecule B4 displayed a Kd of 74 µM.

Take B5: the Kd worked out at 11 µM.

For the molecule B6, binding was characterised by a dissociation constant (Kd) of 5.9 µM.

In the case of B7, the Kd stood at 3.3 µM.

Regarding B8, the Kd is 7.8 µM.

B9 had an equilibrium dissociation constant (Kd) of 7.7 µM.

Consider B10, for which binding was characterised by a dissociation constant (Kd) of 12 µM.

With B11, the Kd worked out at 4.6 µM.

Molecule B12 came in with a Kd of 8.6 µM.
